Test results taken from patent US20140087995A1 (published 2014).
Numbered stars: 1 amine (or outer) side, 2 acyl side, 3 side chain; on linkers, the order of the positions; unused ones are H or OH. Bridge positions count the residues as written; N and C are the ends. Side chains are listed from the residue outwards. Ends that are not written are not given here. * marks the point of attachment. C20 diacid = O=C(O)CCCCCCCCCCCCCCCCCCC(=O)*; γGlu = O=C(O)[C@H](CCC(=O)[*:2])N[*:1]; AEEA = NCCOCCOCC(=O)O

Target: T1, human amylin receptor (amylin 3(a) receptor: human calcitonin receptor with RAMP-3) (human, UniProt P30988 25-474; O60896 24-148)
T1 construct: whole, on cells; also called hAmylin-R; hAmylinR
T1 sequence (looked up) 1: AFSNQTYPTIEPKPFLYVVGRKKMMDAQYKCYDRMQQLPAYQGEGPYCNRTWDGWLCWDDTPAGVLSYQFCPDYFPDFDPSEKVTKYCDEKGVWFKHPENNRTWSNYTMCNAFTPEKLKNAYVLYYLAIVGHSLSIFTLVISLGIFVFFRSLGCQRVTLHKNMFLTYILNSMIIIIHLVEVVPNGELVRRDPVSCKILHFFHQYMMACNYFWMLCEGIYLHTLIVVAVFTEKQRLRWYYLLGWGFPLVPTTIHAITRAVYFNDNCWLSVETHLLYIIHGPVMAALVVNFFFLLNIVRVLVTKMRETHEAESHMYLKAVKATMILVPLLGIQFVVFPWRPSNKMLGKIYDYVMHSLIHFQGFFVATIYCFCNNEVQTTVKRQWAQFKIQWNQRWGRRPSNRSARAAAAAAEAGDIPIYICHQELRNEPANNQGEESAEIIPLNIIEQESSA
T1 sequence (looked up) 2: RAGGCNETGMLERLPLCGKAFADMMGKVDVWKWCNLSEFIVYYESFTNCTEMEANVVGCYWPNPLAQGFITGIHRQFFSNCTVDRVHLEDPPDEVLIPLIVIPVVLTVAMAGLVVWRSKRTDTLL
Test: SPA displacement of 125I-rat amylin, hAmylin 3(a) receptor membranes
How it was run: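 SPA beads with BHK Amylin 3(a)/CRE-luc cell membranes (35 ng/μL final) in 50 mM Hepes pH 7.4, 1 mM CaCl2, 5 mM MgCl₂, 0.1% OA, 0.02% Tween20.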

B1: N^ε1-[2-[2-[2-[[2-[2-[2-[[(4S)-4-carboxy-4-(19-carboxynonadecanoylamino)butanoyl]amino]ethoxy]ethoxy]acetyl]amino]ethoxy]ethoxy]acetyl]-[Arg17,Pro21,Pro27,Arg34 … (peptide)
peptide: K([AEEA-AEEA-γGlu-C20 diacid])CNTATCATQRLANFLRHSSPNFGAIPSSTNVGRNTY-NH2
modifications: disulfide 2-7; N-terminus assumed
SMILES: CC[C@H](C)[C@H](NC(=O)[C@H](C)NC(=O)CNC(=O)[C@H](Cc1ccccc1)NC(=O)[C@H](CC(N)=O)NC(=O)[C@@H]1CCCN1C(=O)[C@H](CO)NC(=O)[C@H](CO)NC(=O)[C@H](Cc1c[nH]cn1)NC(=O)[C@H](CCCNC(=N)N)NC(=O)[C@H](CC(C)C)NC(=O)[C@H](Cc1ccccc1)NC(=O)[C@H](CC(N)=O)NC(=O)[C@H](C)NC(=O)[C@H](CC(C)C)NC(=O)[C@H](CCCNC(=N)N)NC(=O)[C@H](CCC(N)=O)NC(=O)[C@@H](NC(=O)[C@H](C)NC(=O)[C@@H]1CSSC[C@H](NC(=O)[C@@H](N)CCCCNC(=O)COCCOCCNC(=O)COCCOCCNC(=O)CC[C@H](NC(=O)CCCCCCCCCCCCCCCCCCC(=O)O)C(=O)O)C(=O)N[C@@H](CC(N)=O)C(=O)N[C@@H]([C@@H](C)O)C(=O)N[C@@H](C)C(=O)N[C@@H]([C@@H](C)O)C(=O)N1)[C@@H](C)O)C(=O)N1CCC[C@H]1C(=O)N[C@@H](CO)C(=O)N[C@@H](CO)C(=O)N[C@H](C(=O)N[C@@H](CC(N)=O)C(=O)N[C@H](C(=O)NCC(=O)N[C@@H](CCCNC(=N)N)C(=O)N[C@@H](CC(N)=O)C(=O)N[C@H](C(=O)N[C@@H](Cc1ccc(O)cc1)C(N)=O)[C@@H](C)O)C(C)C)[C@@H](C)O
notes: also called 95; compound 95
IC50: 0.967 nM

B2: N^ε1-[2-[2-[2-[[2-[2-[2-[[(4S)-4-carboxy-4-(19-carboxynonadecanoylamino)butanoyl]amino]ethoxy]ethoxy]acetyl]amino]ethoxy]ethoxy]acetyl]-[Arg17,Pro21,Pro27,Glu35 … (peptide)
peptide: K([AEEA-AEEA-γGlu-C20 diacid])CNTATCATQRLANFLRHSSPNFGAIPSSTNVGSETY-NH2
modifications: disulfide 2-7; N-terminus assumed
SMILES: CC[C@H](C)[C@H](NC(=O)[C@H](C)NC(=O)CNC(=O)[C@H](Cc1ccccc1)NC(=O)[C@H](CC(N)=O)NC(=O)[C@@H]1CCCN1C(=O)[C@H](CO)NC(=O)[C@H](CO)NC(=O)[C@H](Cc1c[nH]cn1)NC(=O)[C@H](CCCNC(=N)N)NC(=O)[C@H](CC(C)C)NC(=O)[C@H](Cc1ccccc1)NC(=O)[C@H](CC(N)=O)NC(=O)[C@H](C)NC(=O)[C@H](CC(C)C)NC(=O)[C@H](CCCNC(=N)N)NC(=O)[C@H](CCC(N)=O)NC(=O)[C@@H](NC(=O)[C@H](C)NC(=O)[C@@H]1CSSC[C@H](NC(=O)[C@@H](N)CCCCNC(=O)COCCOCCNC(=O)COCCOCCNC(=O)CC[C@H](NC(=O)CCCCCCCCCCCCCCCCCCC(=O)O)C(=O)O)C(=O)N[C@@H](CC(N)=O)C(=O)N[C@@H]([C@@H](C)O)C(=O)N[C@@H](C)C(=O)N[C@@H]([C@@H](C)O)C(=O)N1)[C@@H](C)O)C(=O)N1CCC[C@H]1C(=O)N[C@@H](CO)C(=O)N[C@@H](CO)C(=O)N[C@H](C(=O)N[C@@H](CC(N)=O)C(=O)N[C@H](C(=O)NCC(=O)N[C@@H](CO)C(=O)N[C@@H](CCC(=O)O)C(=O)N[C@H](C(=O)N[C@@H](Cc1ccc(O)cc1)C(N)=O)[C@@H](C)O)C(C)C)[C@@H](C)O
notes: also called 25; compound 25
IC50: 0.768 nM
